{
  "source": "patent US20100021987",
  "key": {"[1]": {"target": "6xHis-hSUMO-3-X-eGFP, X = S"}, "[2]": {"target": "6xHis-hSUMO-3-X-eGFP, X = N"}, "[3]": {"target": "6xHis-hSUMO-3-X-eGFP, X = D"}, "[4]": {"target": "6xHis-hSUMO-3-X-eGFP, X = A"}, "[5]": {"target": "6xHis-hSUMO-3-X-eGFP, X = R"}, "[6]": {"target": "6xHis-hSUMO-3-X-eGFP, X = K"}, "[7]": {"target": "6xHis-hSUMO-3-X-eGFP, X = Y"}, "[8]": {"target": "6xHis-hSUMO-3-X-eGFP, X = H"}, "[9]": {"target": "6xHis-hSUMO-3-X-eGFP, X = G"}, "[10]": {"target": "6xHis-hSUMO-3-X-eGFP, X = P"}, "[11]": {"target": "6xHis-hSUMO-3-X-eGFP, X = C"}, "[12]": {"target": "6xHis-hSUMO-3-X-eGFP, X = I"}, "[13]": {"target": "6xHis-hSUMO-3-X-eGFP, X = L"}, "[14]": {"target": "6xHis-hSUMO-3-X-eGFP, X = W"}, "[15]": {"target": "6xHis-hSUMO-3-X-eGFP, X = E"}, "[16]": {"target": "6xHis-hSUMO-3-X-eGFP, X = F"}, "[17]": {"target": "6xHis-hSUMO-3-X-eGFP, X = T"}, "[18]": {"target": "6xHis-hSUMO-3-X-eGFP, X = V"}, "[19]": {"target": "6xHis-hSUMO-3-X-eGFP, X = Q"}},
  "data": [
    {"protein": "human SENP2 (hSENP2) SUMO protease catalytic domain (protein) MASLLELTEDMEKEISNALGHGPQDEILSSAFKLRITRGDIQTLKNYHWLNDEVINFYMNLLVERNKKQGYPALHVFSTFFYPKLKSGGYQAVKRWTKGVNLFEQEIILVPIHRKVHWSLVVIDLRKKCLKYLDSMGQKGHRICEILLQYLQDESKTKRNSDLNLLEWTHHSMKPHEIPQQLNGSDCGMFTCKYADYISRDKPITFTQHQMPLFRKKMVWEILHQQLLAAALEHHHHHH", "values": [
      {"measurement": "Percent cleavage, enzyme:substrate 1:100", "setting": "[1]", "result": 99.6, "unit": "%"},
      {"measurement": "Percent cleavage, enzyme:substrate 1:1000", "setting": "[1]", "result": 99.1, "unit": "%"},
      {"measurement": "Percent cleavage, enzyme:substrate 1:100", "setting": "[2]", "result": 96.2, "unit": "%"},
      {"measurement": "Percent cleavage, enzyme:substrate 1:1000", "setting": "[2]", "result": 98.3, "unit": "%"},
      {"measurement": "activity level (grade)", "setting": "6xHis-AtSUMO1-eGFP", "result": "+"},
      {"measurement": "cleavage, 2-fold enzyme dilution series, SDS-PAGE", "setting": "6xHis-AtSUMO1-eGFP", "result": "Both hSENP2 and yUlp1 cleaved the AtSUMO1 fusion similarly"},
      {"measurement": "Percent cleavage, enzyme:substrate 1:100", "setting": "[3]", "result": 99.5, "unit": "%"},
      {"measurement": "Percent cleavage, enzyme:substrate 1:1000", "setting": "[3]", "result": 69.8, "unit": "%"},
      {"measurement": "Percent cleavage, enzyme:substrate 1:100", "setting": "[4]", "result": 99.6, "unit": "%"},
      {"measurement": "Percent cleavage, enzyme:substrate 1:1000", "setting": "[4]", "result": 92.5, "unit": "%"},
      {"measurement": "activity level (grade)", "setting": "6xHis-hSUMO-1-eGFP", "result": "++"},
      {"measurement": "cleavage, 2-fold enzyme dilution series, SDS-PAGE; fold against yUlp1", "setting": "6xHis-hSUMO-1-eGFP", "result": "hSENP2 was able to cleave hSUMO-1 and ySmt3 fusions somewhat more effectively (about 2-fold) than yUlp1"},
      {"measurement": "cleavage, time course, SDS-PAGE", "setting": "6xHis-hSUMO-1-eGFP", "result": "both enzymes cleaving hSUMO-1-eGFP poorly"},
      {"measurement": "Percent cleavage, enzyme:substrate 1:100", "setting": "[5]", "result": 99.7, "unit": "%"},
      {"measurement": "Percent cleavage, enzyme:substrate 1:1000", "setting": "[5]", "result": 98.7, "unit": "%"},
      {"measurement": "Percent cleavage, enzyme:substrate 1:100", "setting": "[6]", "result": 100, "unit": "%"},
      {"measurement": "Percent cleavage, enzyme:substrate 1:1000", "setting": "[6]", "result": 92.8, "unit": "%"},
      {"measurement": "Percent cleavage, enzyme:substrate 1:100", "setting": "[7]", "result": 100, "unit": "%"},
      {"measurement": "Percent cleavage, enzyme:substrate 1:1000", "setting": "[7]", "result": 98.7, "unit": "%"},
      {"measurement": "Kcat", "setting": "6xHis-ySmt3-eGFP", "result": "Kcat = 0.75"},
      {"measurement": "Kcat, fold difference against yUlp1", "setting": "6xHis-ySmt3-eGFP", "result": "about 2-fold difference in Kcat"},
      {"measurement": "Km", "setting": "6xHis-ySmt3-eGFP", "result": "Km = 2.72 mM"},
      {"measurement": "activity level (grade)", "setting": "6xHis-ySmt3-eGFP", "result": "+++++"},
      {"measurement": "cleavage, 2-fold enzyme dilution series, SDS-PAGE; fold against yUlp1", "setting": "6xHis-ySmt3-eGFP", "result": "hSENP2 was able to cleave hSUMO-1 and ySmt3 fusions somewhat more effectively (about 2-fold) than yUlp1"},
      {"measurement": "cleavage, time course, SDS-PAGE", "setting": "6xHis-ySmt3-eGFP", "result": "both enzymes cleaving hSUMO-1-eGFP poorly and ySmt3-eGFP well"},
      {"measurement": "Kcat", "setting": "6xHis-hSUMO-3-eGFP", "result": "Kcat = 0.33"},
      {"measurement": "Kcat, fold difference against yUlp1", "setting": "6xHis-hSUMO-3-eGFP", "result": "about 12-fold difference in Kcat"},
      {"measurement": "Km", "setting": "6xHis-hSUMO-3-eGFP", "result": "Km = 2.41 mM"},
      {"measurement": "Percent cleavage, enzyme:substrate 1:100", "setting": "6xHis-hSUMO-3-eGFP", "result": 99.4, "unit": "%"},
      {"measurement": "Percent cleavage, enzyme:substrate 1:1000", "setting": "6xHis-hSUMO-3-eGFP", "result": 95.4, "unit": "%"},
      {"measurement": "activity level (grade)", "setting": "6xHis-hSUMO-3-eGFP", "result": "+++"},
      {"measurement": "cleavage, 2-fold enzyme dilution series, SDS-PAGE; fold against yUlp1", "setting": "6xHis-hSUMO-3-eGFP", "result": "hSENP2 was able to cleave hSUMO-3-eGFP at least 4-fold better than an identical amount of yUlp1"},
      {"measurement": "cleavage, time course, SDS-PAGE", "setting": "6xHis-hSUMO-3-eGFP", "result": "providing nearly complete cleavage within 2 hrs."},
      {"measurement": "Percent cleavage, enzyme:substrate 1:100", "setting": "[8]", "result": 100, "unit": "%"},
      {"measurement": "Percent cleavage, enzyme:substrate 1:1000", "setting": "[8]", "result": 98.4, "unit": "%"},
      {"measurement": "Percent cleavage, enzyme:substrate 1:100", "setting": "[9]", "result": 100, "unit": "%"},
      {"measurement": "Percent cleavage, enzyme:substrate 1:1000", "setting": "[9]", "result": 98.9, "unit": "%"},
      {"measurement": "Percent cleavage, enzyme:substrate 1:100", "setting": "[10]", "result": 0, "unit": "%"},
      {"measurement": "Percent cleavage, enzyme:substrate 1:1000", "setting": "[10]", "result": 0, "unit": "%"},
      {"measurement": "Percent cleavage, enzyme:substrate 1:100", "setting": "[11]", "result": 100, "unit": "%"},
      {"measurement": "Percent cleavage, enzyme:substrate 1:1000", "setting": "[11]", "result": 98.5, "unit": "%"},
      {"measurement": "Percent cleavage, enzyme:substrate 1:100", "setting": "[12]", "result": 98.4, "unit": "%"},
      {"measurement": "Percent cleavage, enzyme:substrate 1:1000", "setting": "[12]", "result": 56.2, "unit": "%"},
      {"measurement": "Percent cleavage, enzyme:substrate 1:100", "setting": "[13]", "result": 98.6, "unit": "%"},
      {"measurement": "Percent cleavage, enzyme:substrate 1:1000", "setting": "[13]", "result": 75.2, "unit": "%"},
      {"measurement": "Percent cleavage, enzyme:substrate 1:100", "setting": "[14]", "result": 100, "unit": "%"},
      {"measurement": "Percent cleavage, enzyme:substrate 1:1000", "setting": "[14]", "result": 99.4, "unit": "%"},
      {"measurement": "activity level (grade)", "setting": "6xHis-T-SUMO-eGFP", "result": "+"},
      {"measurement": "Percent cleavage, enzyme:substrate 1:100", "setting": "[15]", "result": 100, "unit": "%"},
      {"measurement": "Percent cleavage, enzyme:substrate 1:1000", "setting": "[15]", "result": 92.2, "unit": "%"},
      {"measurement": "Percent cleavage, enzyme:substrate 1:100", "setting": "[16]", "result": 100, "unit": "%"},
      {"measurement": "Percent cleavage, enzyme:substrate 1:1000", "setting": "[16]", "result": 98.9, "unit": "%"},
      {"measurement": "Percent cleavage, enzyme:substrate 1:100", "setting": "[17]", "result": 99, "unit": "%"},
      {"measurement": "Percent cleavage, enzyme:substrate 1:1000", "setting": "[17]", "result": 82, "unit": "%"},
      {"measurement": "activity level (grade)", "setting": "6xHis-AtSUMO2-eGFP", "result": "+"},
      {"measurement": "Percent cleavage, enzyme:substrate 1:100", "setting": "[18]", "result": 100, "unit": "%"},
      {"measurement": "Percent cleavage, enzyme:substrate 1:1000", "setting": "[18]", "result": 99.8, "unit": "%"},
      {"measurement": "Percent cleavage, enzyme:substrate 1:100", "setting": "[19]", "result": 95.9, "unit": "%"},
      {"measurement": "Percent cleavage, enzyme:substrate 1:1000", "setting": "[19]", "result": 66.7, "unit": "%"}
    ]}
  ]
}
